# Laboratory results as given in patent publication US20210253725A1 (BIONTECH, published 2021).
# Numbering of substitutions follows the chain as printed.
# B1: P018.S.01.A.F05 (antibody, V domains shown)
# VH: QEQLEESGGDLVKPEGSLTLTCTASGFSFSSSYWICWVRQAPGKGLEWIGCIITGRGNTYYANWAKGRFTISKTSSTTVTLQMTSLTAADTAIYSCARGPGGADPVNLWGPGTLVTVSS
# VL: DVVMTQTPASVSEPVGGTVTIKCQASQSIYSNLAWYQQKPGQPPKLLIYRASTLTSGVPSRFKGSGSGTQFTLTISDLESADAATYYCQCTYDGSSYVPNAFGGGTEVVVK
# B2: P018.S.01.A.H02 (antibody, V domains shown)
# VH: QSVEESGGRLVTPGTPLTLTCTASGFSLSSYHMQWVRQAPGKGLEWIGIIYAGSGNTWYASWAKGRFTISKTSTTVDLKITSPTTEDTAAYFCARQPGGDASDTQLDLWGQGTLVTVSS
# VL: AAVLTQTASPVSAAVGGTVTINCQSSQSVFDHNQLSWFQHKPGQSPKLLIYRASTLASGVPSRFKGSGSGTQFTLTISDVQSDDAATYYCLGGYSSSSDTVFGGGTEVVVK
# B3: P018.S.04.A.A05 (antibody, V domains shown)
# VH: QSLEESGGRLVTPGTPLTLTCTASGFTISSYEMGWVRQAPGEGLEYIGWIASGGSTFYASWAKGRFTISRTSTTVDLTITDLRPSDTGTYFCARGYVEFKLWGPGTLVTVSS
# VL: DIVMTQTPASVSESVGGTVTIKCQASQSIGSYLSWYQQKPGQPPKVLIYRASTLESGVPSRFEGSGSGTQFTLTISDLESADAATYYCQGYHSTSGYVAFGGGTELVVK
# B4: P018.S.02.A.G03 (antibody, V domains shown)
# VH: QSVEESGGRLVTPGTPLTLTCTVSGFSLSSYVMSWVRQAPGKGLEWIGYIDYGGTAYYASWAKGRFTISKTSTTVELKITSPTIEDTATYFCARGGYGGYILVTGLWGPGTLVTVSS
# VL: DIVMTQTPASVSEPVGGTVTIKCQASQTIISYLSWYQQKPGQPPKLLIYGASTLASGVPSRFKGSGSVTEYTLTISDLESADAATYYCQTYYGGGPFGNGFGGGTEVVVK
# B5: P018.S.09.A.H03 (antibody, V domains shown)
# VH: QSLEESGGRLVTPDESLTLTCTVSGFSLSSNAMIWVRQAPGKGLEWIGIIDTGGSAYYASWAKGRFTISKTSTTVDLKITSPTTEDTATYFCARDRYTDSSGYNLWGQGTLVTVSS
# VL: DIVMTQTPASVEAAVGGTVTIKCQASQSIGASLAWYKQKPGQPPKLLIYSASWLASGVPSRFKGSGSGTEFTLTISDLASADAATYYCQSYYYRSSSGYGYAFGGGTEVVVK
# B6: P018.S.09.A.E05 (antibody, V domains shown)
# VH: QSLEESGGRLVTPGTPLTLTCTVSGIDLSRYDMSWVRQAPGKGLEWIGFIGASGSTYYASWVKGRFTISKTSTTVDLKITSPTTEDTATYFCAREETDSRGYYYSLWGPGTPVTVSS
# VL: ALVMTQTPASVEAAVGGTVTINCQASQSISDLLGWYQQKPGQPPKLLIYDASDLASGVPSRFSGSGSGTEFTLTISGVQSDDAATYYCQQGYSINNVDNAFGGGTEVVVK
# B7: P018.S.06.A.A02 (antibody, V domains shown)
# VH: QEQLVESGGGLVQPEGSLTLTCTSSGFSLNSNYYISWVRQAPGKGLEWIACIDAGSGSTWYASWVKGRFTISKTSSTTVTLQMTSLTAADTATYFCARDDIGTSYEYYFGLWGPGTLVTVSS
# VL: DVVLTQTPASVSEPVGGTVTIKCQASQTISSYLAWYQQKSGQPPKLLIYSASTLASGVSSRFKGSGSGTEYTLTISDLESADAATYYCQTYYGSDSYVFGGGTEVVVK
# B8: P018.S.07.A.C04 (antibody, V domains shown)
# VH: QEQLVESGGGLVQPEGSLTLTCTASGFSFSSRFWICWVRQAPGKGLEWIACIYGGSTSATYDASWAKGRFTISKTSSTTVTLQMTSLTAADTATYFCTRLPTYDAYVFNLWGPGTLVTVSS
# VL: AIVMTQTPSSKSVPVGATATINCQASESVFSNNYLSWYQQKPGRSPKLLIYEASKLASGVPSRFSGSGSGTQFTLTISDVVSDDAATYYCGGYKSNNVDGYAFGGGTEVVVK
# B9: P018.S.07.A.G02 (antibody, V domains shown)
# VH: QSVEESGGRLVTPGTPLTLTCTVSGFSLSSYDMSWVRQAPGKGLEWIGWITTDGGTDYASWAKGRFTVSKASTTVDLKITSPTTEDTATYFCARGYASFNLWGQGTLVTVSS
# VL: AQVLTQTPSSVSAAVGGTVTINCQSSQSVLSNSYLAWYQQKPGQPPKLLIYAASSLASGVPSRFKGSGSGTQFTLTISDLESDDAATYYCQGTDYSGGWYVAFGGGTEVVVK
# B10: P018.S.10.A.C05 (antibody, V domains shown)
# VH: QSVEETGGRLVTPGTPLTLTCAASGVSLSGYYAMSWVRQAPGKGLEWIGYLDATGSTYYASWVKGRFIISRPSTTVDLQITSPTIEDTATYFCARGSYDGVGYNWGLWGQGTLVTVSS
# VL: DIVMTQTPASVSEPVGGTVTIKCQASESIYNGLAWYQQKPGQPPKRLIYGASTLTSGVPSRFKGSGSGTEFTLTISDLESDDAATYYCQSNYGSGSRSNYIFGGGTEVVVK
# B11: P018.S.04.A.F04 (antibody, V domains shown)
# VH: QSVEESGGRLVTPGTPLTLTCTVSGFSLSNYAMSWVRQAPGKGLEWIGIIYASGTTYYARWAKGRFTISRTSTTVDLKISSPTTEDTATYFCAREYDSYDYAYGSSIYAFDPWGPGTLVTVSS
# VL: AYDMTQTPSSVSAAVGGTVTIKCQASESIYSNLAWYQQKPGQRPKLLIYRASTLASGVSSRFKGSGSGTQFTLSISGVESADAATYYCQQGYSSSNVDNVFGGGTEVVVK
# B12: P018.S.10.A.E01 (antibody, V domains shown)
# VH: QEQLVESGGGLVQPEGSLTLTCTATGIDFSTNYRSCWVRQAPGKGLEWIACIDTDDSDSTYYASWAKGRFTISKTSSTTVTLQMTSLTAADTATYFCTRAYTTSDYAWSFYLWGPGTLVTVSS
# VL: DLVMTQTPASVEAAVGGTVTIKCQTSQSISKFLNWYQQTPGQPPKLLIYRASTLESGVPSRFEGSGSGTEFTLTISDLESADAATYYCQCTYGGTSGSVWAFGGGTEVVVK
# B13: P018.S.10.A.A04 (antibody, V domains shown)
# VH: QSVEESGGRLVTPGTPLTLTCTVSGIDLSSNVMTWVRQAPGKGLEWIGYIYASATTYYATWAKGRFTISKTSTTVDLKMTSPTTEDTATYFCARERLASRGDYSDLWGQGTLVTVSS
# VL: AYDMTQTPASVEAAVGGTVTIKCQASESIGDLLAWYQQKPGQPPKLLIYDASDLASGVPSRFKGSGSGTEFTLTISGVESADAATYYCQQGYTTTSNVDNIFGGGTEVVVK
# B14: P018.S.09.A.H06 (antibody, V domains shown)
# VH: QSVEESGGRLVKPDETLTLTCTVSGIDLTSYAMGWVRQAPGEGLEWIGAIGSGGGIYYASWARGRFTISKTSSTTVDLKIPSPTTEDTATYFCARVPQWAYLDLWGQGTLVTVSS
# VL: AQVLTQTPASVSAAVGGTVTISCQSSESVYKNNYLSWYQQKPGQPPKLLIYDASTLASGVPSRFSGSGSGTQFTLTISGVQSEDAATYYCQGYYGGGIFTFGGGTEVVVK
# B15: P018.S.10.A.H01 (antibody, V domains shown)
# VH: QEQLEESGGDLVKPGASLTLTCTASGFSFSSDYDMCWVSQAPGKGLEWIACIIGGSSDSTWYASWAKGRFTISKTSSTTVTLQVTGLTAADTATYFCARNVGFSYYDLWGPGTLVTVSS
# VL: AQVLTQTPSPVSAAVGGTVTINCQASQSLYNNKNLAWYQQKPGQPPKLLIYYASTLASGVSSRFKGSGSGTQFTLTISGVQSDDAATYYCQGEFSCSSGDCFAFGGGTEVVVK
# B16: P018.S.09.A.C03 (antibody, V domains shown)
# VH: QSVEESGGRLVTPGTPLTLTCTVSGFSLSSYGMIWVRQAPGKGLEWIGWISSNDNKYYARWAKGRFTISKTSTTVDLKMTSLTTEDTATYFCVRNGVYNTGNYFDLWGQGTLVTVSS
# VL: B15 VL with P10S, L48F, Y52T, T55S, G79D, S95D, S97D, G99D
# B17: P018.S.03.A.A02 (antibody, V domains shown)
# VH: QSVEESGGRLVTPGTPLTLTCTVSGFSLSSYDMTWVRQAPGEGLEWIGYINTDTTTYYASWAKGRFTISRTSTTVDLEITSPTTEDTATYFCARGNDPIYIDLWGQGTLVTVSS
# VL: AAVLTQTPSPVSAAVGGTVSISCQSSKSVINNNWLGWYQQKPGQPPKLLISYASTLASGVPSRFSGSGSGTQFTLTISDVQSDDAATYYCAGAYSPDSENAFGGGTEVVLK
# B18: P018.S.01.A.B04 (antibody, V domains shown)
# VH: QEQLEESGGRLVTPGGTLTLTCTASGFSLSSYDMSWVRQAPGKGLEWIGYIWSDGNTDYASWAAGRFTASRASTTVDLKMTSLTTEDTATYFCARGYTGFFLWGPGTLVTVSS
# VL: DVVMTQTPSSVSAAVGGTVTIKCQASQSIGSSYLSWYQQKPGQPPKLLIYKTSTLASGVPSRFKGSGSGTEFTLTISDLESDDAATYYCQCTYYGGSWRVAFGGGTEVVVK
# B19: P018.S.01.A.D04 (antibody, V domains shown)
# VH: B18 VH with S31N
# VL: B18 VL with A13T, G17D
# B20: P018.S.09.A.D05 (antibody, V domains shown)
# VH: QSLEESGGRLVTPGGSLTLTCTVSGIDLSSYAMDWVRQAPGKGLEWIGVIGAGGSTYYASWANGRFTISKTSTTVDLKISSPTTEDTATYFCARDIGGDYSSRYYFSLWGPGTLVTVSS
# VL: DIVMTQTPASVEAAVGGTVTIKCQASQSTSTALAWYQQKPGQRPKLLIYDSSKLASGVPSRFSGSGSGTEFTLTISGVQSDDAASYYCQQGYNINNVAFGGGTEVVVK
# Biological target: T1, CD27 expressed on the cell surface of HT1080_CD27 cells (human, UniProt P26842 20-260)
# T1 sequence (looked up): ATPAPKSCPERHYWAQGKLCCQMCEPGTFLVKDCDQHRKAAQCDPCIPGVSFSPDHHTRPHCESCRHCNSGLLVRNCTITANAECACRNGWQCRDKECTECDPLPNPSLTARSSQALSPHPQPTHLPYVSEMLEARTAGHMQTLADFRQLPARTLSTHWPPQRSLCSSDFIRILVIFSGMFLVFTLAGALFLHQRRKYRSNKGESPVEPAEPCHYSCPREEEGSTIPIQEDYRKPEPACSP
# Assay: cell-based or functional assay
row,Binder,"EC 50 (IL-8 release, cross-linked) [µg/mL]"
1,B1,1.32
2,B2,1.11
3,B3,0.408
4,B4,0.526
5,B5,0.387
6,B6,0.502
7,B7,0.575
8,B8,0.801
9,B9,0.43
10,B10,0.34
11,B11,1.44
12,B12,0.722
13,B13,0.335
14,B14,0.329
15,B15,0.431
16,B16,1.02
17,B17,0.835
18,B18,0.856
19,B19,1.3
20,B20,0.561
